Measurements as given in paper PMC10265101 (2023).

Assays:
[1] = biological target: T1, recombinant PD-L1 protein (#10084-HNAH, Sino Biological) (UniProt Q9NZQ7 19-290); assay: SPR; heterogeneous ligand fit, KD2 (second site)
[2] = biological target: T1, recombinant PD-L1 protein (#10084-HNAH, …); assay: SPR; heterogeneous ligand fit, KD1
CD3ε = assay: SPR

T1 sequence (Q9NZQ7 19-290): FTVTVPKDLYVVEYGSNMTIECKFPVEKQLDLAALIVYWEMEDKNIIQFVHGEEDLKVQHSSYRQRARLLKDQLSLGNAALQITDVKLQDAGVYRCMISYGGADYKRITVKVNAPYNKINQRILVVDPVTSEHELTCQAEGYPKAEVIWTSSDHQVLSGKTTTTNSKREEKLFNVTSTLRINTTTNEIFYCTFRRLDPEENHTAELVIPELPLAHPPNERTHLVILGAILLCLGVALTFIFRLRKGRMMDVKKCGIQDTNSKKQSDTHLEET

Kd [1]: 2.05 pM
Kd [2]: 9.86 nM
Kd (CD3ε): 2.48 nM
B1: recombinant Nb-BiTE (PD-L1/CD3ε Nb-BiTE) (bispecific antibody)
chain: HVQLVESGGGLVQPGGSLRLSCAASGFTFSSKAMSWVRQAPGKGLDWVSTINSGGGNTYYSDSVKGRFTISRDNAKNTLYLQLNSLKTEDTAMYYCSRCSDIYCGGQYTYRGQGTLVTVSSGGGGSGGGGSGGGGSEVQLVESGGGLVQPGGSLRLSCVASGFTFSSIGMSWVRQAPGKGLEWVSGLNPVGSHTGYADSVKGRFTISRDNAKNTLHLQLNSLKTEDTAMYYCQRGYTCSGDLCERGQGTQVTVSSGGGGSGGGGSGGGGSHVQLVESGGGSVQAGGSLRLSCTVSGVIFKNEYMGWFRQAPGKEREGVAAASPGGTITYYGDSVKGRFTISRDNAKNTVYLQMNRLKPEDTAMYYCALDPSTTSWSIIRHGPSLWRYSGRGTQVTVSS
